One substance from publication PMC4817256 can be followed below.

The target in this assay is eukaryotic translation initiation factor 4E (human (endogenous in U2OS and HeLa)) (UniProt P06730). The experiment in a line: proximity ligation.
Sequence of UniProt P06730 (P06730 whole entry): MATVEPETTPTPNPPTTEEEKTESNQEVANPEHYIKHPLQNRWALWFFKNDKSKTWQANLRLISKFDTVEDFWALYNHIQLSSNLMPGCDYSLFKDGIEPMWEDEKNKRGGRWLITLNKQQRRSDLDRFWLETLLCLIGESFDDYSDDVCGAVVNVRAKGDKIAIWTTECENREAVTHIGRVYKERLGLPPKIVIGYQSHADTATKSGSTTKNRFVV

Regarding HIV-1 Gag-GFP (natural protein), the PLA dots per cell (dots per cell) is 6.98.
